Source: patent US20120039878A1 (ELAN PHARMACEUTICALS, published 2012)
Substitutions are numbered along the chain they refer to.

T1: human AA amyloid (human renal AA amyloid extract; AA deposits in human tissue) (human)
T1 construct: also called human AA amyloid extract; human AA amyloid fibrils
T1 sequence (P0DJI8 19-94, looked up): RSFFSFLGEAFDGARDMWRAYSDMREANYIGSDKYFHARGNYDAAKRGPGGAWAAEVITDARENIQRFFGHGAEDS

T2: peptide 68, CGGHEDTM
T2 peptide: CGGHEDTM

T3: peptide 69, CGGHEDTMA
T3 peptide: CGGHEDTMA

T4: peptide 70, CGGHEDTMAD
T4 peptide: CGGHEDTMAD

T5: peptide 66, CGGHEAT
T5 peptide: CGGHEAT

T6: murine AA amyloid (AA fibrils; amyloid enhancing factor extract, AEF) (mouse)
T6 construct: also called Mouse AA (AEF); murine AA AEF
T6 sequence (P05366 whole entry, looked up): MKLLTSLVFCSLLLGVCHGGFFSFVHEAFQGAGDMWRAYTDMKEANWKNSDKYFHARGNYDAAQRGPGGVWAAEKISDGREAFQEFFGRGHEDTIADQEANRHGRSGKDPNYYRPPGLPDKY

T7: peptide 71, CGGHED
T7 peptide: CGGHED

T8: peptide 65, CGGHADT
T8 peptide: CGGHADT

B1: murine monoclonal antibody 2A4 (ATCC Accession Number PTA-9662) (antibody, V domains shown)
VH: EVQLVESGGRLVQPKGSLKLSCAASGFTFNTYAMYWIRQAPGKGLEWVARIRSKSNNYAIYYADSVKDRFTIFRDDSQSMLYLQMNNLKTEDTAMYYCVRPYSDSFAYWGQGTLVTVSA
VL: DVVMTQTPLSLPVSLGDQASISCRSSQSLVHSTGNTYLHWYLQKPGQSPKLLIYKVSNRFSGVPDRFSGSGSGTYFTLKISRVEAEDLGVYFCSQSTHVPFTFGGGTKLEIK
notes: Murine IgG2b kappa; Used as hybridoma culture supernatant or as protein A-purified mAb; also called mAb 2A4; 2A4.20.44.77
B2: murine monoclonal antibody 8G9 (antibody, mouse IgG2b, V domains shown)
VH: B1 VH
VL: B1 VL
notes: Murine IgG2b kappa; also called mAb 8G9; 8G9.3.4.51.22
B3: murine monoclonal antibody 7D8 (ATCC Accession Number PTA-9468) (antibody, mouse IgG2b, V domains shown)
VH: B1 VH
VL: B1 VL with Q27L
notes: Murine IgG2b kappa; also called mAb 7D8; 7D8.29.19.47

Tests used:
[1] = target: B3; test: BIAcore competition: peptide p41 in solution with mAb 7D8 (6.6 nM) injected over immobilized Vλ6 Wil fibrils
Method: FIG. 28: Binding kinetics of mAb 7D8 to synthetic Vλ6 Wil fibrils in the presence of the p39 and p41 peptides. The interaction of the mAb 7D8 at 6.6 nM with immobilized Vλ6 Will fibrils was measured by BIAcore in the presence of peptides p39 and p41 at 1 or 20 μg/mL.
To assess the specificity of the reaction and ensure that the binding of the mAbs with the fibrils occurred via the classic F(ab)-antigen interaction (as opposed to Fc-mediated binding or non-specific adsorption), binding data were acquired in the presence of the immunogen peptide (p39) at 20 and 1 μg/mL (FIG. 8). […] In the presence of 20 μg/mL p41 peptide, the binding kinetics for mAb 7D8 with Vλ6 Wil fibrils were identical to 7D8 alone.
(§1) Sensograms were run in HBS-EP buffer from BIAcore at 20 μL/min in the Fc1 (Vλ6 Wil fibrils) minus Fc-2 (control) mode. Samples containing mAb or mAb plus peptide inhibitors were injected (70 μL) and the sensograms collected using the delayed-wash function for 200 sec. Data were analyzed in the BIAevalutation software, using the 1:1 Langmuir model with mass-action correction.

[2] = target: T1, human AA amyloid (human renal AA …); test: ELISA, purified mAb on plate-dried human AA amyloid extract
Method: (§2) Protein Mr markers (Std) are, form top to bottom: 176, 119, 75, 49, 39, 25 and 19 kDa. The interaction of the purified mAbs with immunizing peptide p#39, control peptide (p#41), murine and human AA extracts were determined by ELISA as described above.
(§3) In contrast, even at the highest concentration of mAb used (100 nM) there was little detectable binding to the p#41 peptide (FIG. 33—Each point represents the mean±SE, (n=3 at each concentration)). […] The calculated EC50 values for the mAbs binding to mouse AA extract were essentially identical to those obtained when the p#39 peptide was used as the substrate (FIG. 34; Table 5). […] Because the EC50 value for 7D8 mAb binding was the lowest of the 3 antibodies tested, Applicants selected this reagent for in vivo co-localization and imaging studies. The 2 amino acid substitutions in the human SAA sequence with respect to the murine protein affected the EC50 values.

peptide 68, CGGHEDTM = target: T2, peptide 68, CGGHEDTM; test: BIAcore, antibody binding to peptides
peptide 69, CGGHEDTMA = target: T3, peptide 69, CGGHEDTMA; test: BIAcore, antibody binding to peptides
peptide 70, CGGHEDTMAD = target: T4, peptide 70, CGGHEDTMAD; test: BIAcore, antibody binding to peptides
peptide 66, CGGHEAT = target: T5, peptide 66, CGGHEAT; test: BIAcore, antibody binding to peptides
[3] = target: T6, murine AA amyloid (AA fibrils; amyloid …); test: ELISA, hybridoma culture supernatant on murine AA AEF; not corrected for mAb concentration
Source text: The interaction of 2A4, 8G9 and 7D8 mAbs with AA amyloid was initially tested by ELISA and the data, given in FIG. 31, analyzed using SigmaPlot (SPSS Inc.). Each point represents the mean±SE (n=3). A culture supernatant from an irrelevant hybridoma was used as a control (Ctrl Culture Sup). […] (In addition, the immunohistochemical reactivity of the day 1 material was greater than the day 2 samples). […] Because of the low signal and high variability found with the culture supernatants and to determine more accurately the relative binding affinity of the mAbs for murine and human AA amyloid fibrils (as well as to provide material for in vivo biodistribution studies) it was necessary to isolate the mAbs by protein A affinity chromatography. The purity of the isolated mAbs was established SDS-PAGE using 10% acrylamide gels under reducing and non-reducing conditions (FIG. 32). Samples in lanes 1-4 treated with mercaptoethanol, lanes 5-9 without. Gel was stained with Coomassie blue: mAb 8G9, lanes 1 and 6; mAb 2A4, lanes 2 and 7; mAb 7D8, lanes 3 and 8; SP2/0 control supernatant, lanes 4 and 9; blank, lane 5. Protein Mr markers (Std) are, form top to bottom: 176, 119, 75, 49, 39, 25 and 19 kDa. The interaction of the purified mAbs with immunizing peptide p#39, control peptide (p#41), murine and human AA extracts were determined by ELISA as described above.

[4] = target: T6, murine AA amyloid (AA fibrils; amyloid …); test: ELISA, purified mAb on mouse AA amyloid extract (AEF)
Method: as §2, §3

[5] = target: T9, synthetic Vλ6 Wil fibrils; test: SPR (BIAcore), mAb at 6.6 nM over immobilized synthetic Vλ6 Wil fibrils
T9 construct: Fibrillar (aggregated) form, sonicated and amine-coupled to a CM-5 chip (about 16,000 RU); also called immobilized Vλ6 Wil fibrils
Method: Surface plasmon resonance was used to establish the binding kinetics of several monoclonal antibodies with Vλ6 Wil fibrils and monomer. […] The deflection (expressed in RU) during the binding phase was similar for mAbs 7D8 and 2A4 but was 50% lower for 8G9.
as §1

peptide 71, CGGHED = target: T7, peptide 71, CGGHED; test: BIAcore, antibody binding to peptides
peptide 65, CGGHADT = target: T8, peptide 65, CGGHADT; test: BIAcore, antibody binding to peptides

Binder | binding result [1] | EC50 [2] [nM] | binding result (peptide 68, CGGHEDTM) | binding result (peptide 69, CGGHEDTMA) | binding result (peptide 70, CGGHEDTMAD) | binding result (peptide 66, CGGHEAT) | supernatant dilution after which reactivity is absent [3] | EC50 [4] [nM] | Kd [5] [nM] | binding result (peptide 71, CGGHED) | binding result (peptide 65, CGGHADT)
GHEDTIADQE (also called p41; p#41) [peptide 41, GHEDTIADQE] | no binding (tested: 20 µg/mL) |  |  |  |  |  |  |  |  |  | 
B1 |  | 26.4 | no binding | no binding | no binding | no binding | ~64 fold dilution (1:x) | 4.09 | ~1 |  | 
B2 |  | 31.7 |  |  |  |  | ~64 fold dilution (1:x) | 5.64 | ~1 |  | 
B3 |  | 13.3 | no binding | no binding | no binding | no binding | ~64 fold dilution (1:x) | 1.84 | ~1 | no binding | no binding
